The target of data set [1] is T1, human La (hLa) (human, UniProt P05455 1-408).
T1 sequence: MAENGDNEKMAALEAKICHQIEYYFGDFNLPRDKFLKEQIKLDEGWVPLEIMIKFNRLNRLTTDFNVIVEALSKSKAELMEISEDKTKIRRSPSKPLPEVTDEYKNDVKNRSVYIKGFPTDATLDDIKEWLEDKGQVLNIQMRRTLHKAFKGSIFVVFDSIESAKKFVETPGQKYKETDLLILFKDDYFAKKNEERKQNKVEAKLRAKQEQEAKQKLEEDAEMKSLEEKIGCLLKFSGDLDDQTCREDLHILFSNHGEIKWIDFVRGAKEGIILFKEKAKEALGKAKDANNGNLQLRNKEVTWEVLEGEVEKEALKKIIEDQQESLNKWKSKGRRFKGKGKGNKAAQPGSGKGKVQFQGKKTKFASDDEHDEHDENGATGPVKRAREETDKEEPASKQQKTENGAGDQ
As to the kind of experiment: competition.

In data set [2] the target is T2, hLa R32A/K34A/K37A (human, UniProt P05455 1-408, R32A;K34A;K37A).
T2 sequence: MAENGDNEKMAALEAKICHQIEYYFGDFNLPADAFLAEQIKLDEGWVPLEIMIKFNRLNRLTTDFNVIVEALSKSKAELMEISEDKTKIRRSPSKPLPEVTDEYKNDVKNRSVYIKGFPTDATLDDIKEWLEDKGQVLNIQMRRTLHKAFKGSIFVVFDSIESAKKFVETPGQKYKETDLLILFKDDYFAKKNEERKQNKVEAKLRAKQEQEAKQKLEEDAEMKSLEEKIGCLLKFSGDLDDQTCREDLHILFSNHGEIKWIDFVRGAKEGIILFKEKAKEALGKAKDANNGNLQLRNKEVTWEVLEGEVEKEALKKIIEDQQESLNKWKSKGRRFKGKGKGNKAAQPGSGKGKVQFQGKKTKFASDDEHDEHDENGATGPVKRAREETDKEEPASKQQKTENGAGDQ
Put plainly: EMSA. (In general: In EMSA bound probe runs differently from free probe, usually more slowly.)

For data set [3], the target named is T3, hLa K86A/T87A/K88A (human, UniProt P05455 1-408, K86A;T87A;K88A).
T3 sequence: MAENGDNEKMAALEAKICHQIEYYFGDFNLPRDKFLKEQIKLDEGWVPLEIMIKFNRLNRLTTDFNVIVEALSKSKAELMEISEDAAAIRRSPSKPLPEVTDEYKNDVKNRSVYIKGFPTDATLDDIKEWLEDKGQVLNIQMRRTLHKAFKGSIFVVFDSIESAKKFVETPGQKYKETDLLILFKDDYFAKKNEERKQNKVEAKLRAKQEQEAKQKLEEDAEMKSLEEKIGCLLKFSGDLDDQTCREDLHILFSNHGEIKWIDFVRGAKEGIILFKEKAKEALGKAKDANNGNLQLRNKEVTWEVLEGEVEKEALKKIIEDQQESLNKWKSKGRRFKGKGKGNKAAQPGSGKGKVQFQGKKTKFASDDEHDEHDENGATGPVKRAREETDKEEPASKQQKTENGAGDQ
As to the kind of experiment: EMSA.

The text below walks through data of PMC5934636.

Regarding UUUUUUUUUUUUUUUUUUUU (ssRNA) [U20], the binding result in data set [1] is reported as “binds”.

Turning to UUUUUUUUUU (ssRNA) [U10], the binding result in data set [2] and in data set [3] was “binds” in each case.

For AAAAAAAAAAAAAAAAAAAA (ssRNA) [A20], the binding result in data set [2] is “binds”.
